Assay results: patent US20170342144A1 (Sanofi, published 2017)
Changes are numbered by the printed parent chain. Each block holds one binder with its values, some of them ahead of it.

Tests used:
Assay in all cases: Biacore off-rate vs wt GC1008, 50 nM
human TGFβ3 = target: T1, human TGFβ3 (human, UniProt P10600 301-412)
T1 sequence: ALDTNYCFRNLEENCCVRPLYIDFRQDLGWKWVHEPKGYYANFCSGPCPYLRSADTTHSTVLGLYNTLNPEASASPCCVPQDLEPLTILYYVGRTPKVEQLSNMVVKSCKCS
Method in brief: (§1)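 Surface plasmon resonance on a Biacore 3000 measured how fast purified antibody variants dissociated from TGFβ isoforms immobilized at about 100 RU. Variants carried single heavy- or light-chain substitutions and were produced by transient Expi293F transfection with Protein A cleanup. Samples at 50 nM were tested in duplicate, and each variant kd was divided by the wild-type control kd to give fold change.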

human TGFβ2 = target: T2, human TGFβ2 (human, UniProt P61812 303-414)
T2 construct: also called TGFβ2 homodimer
T2 sequence: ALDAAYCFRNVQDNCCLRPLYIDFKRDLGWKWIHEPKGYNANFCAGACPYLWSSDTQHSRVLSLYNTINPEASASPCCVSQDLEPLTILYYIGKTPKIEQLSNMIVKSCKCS
Method in brief: as §1

human TGFβ1 = target: T3, human TGFβ1 (human, UniProt P01137 279-390)
T3 construct: also called TGFβ1 homodimer
T3 sequence (P01137 279-390 limits assumed): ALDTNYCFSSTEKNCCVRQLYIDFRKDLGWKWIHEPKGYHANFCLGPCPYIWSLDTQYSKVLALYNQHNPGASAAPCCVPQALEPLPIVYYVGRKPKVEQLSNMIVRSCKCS
Method in brief: as §1

B1: S30C (antibody, V domains shown)
VH: QVQLVQSGAEVKKPGSSVKVSCKASGYTFCSNVISWVRQAPGQGLEWMGGVIPIVDIANYAQRFKGRVTITADESTSTTYMELSSLRSEDTAVYYCASTLGLVLDAMDYWGQGTLVTVSS
VL: ETVLTQSPGTLSLSPGERATLSCRASQSLGSSYLAWYQQKPGQAPRLLIYGASSRAPGIPDRFSGSGSGTDFTLTISRLEPEDFAVYYCQQYADSPITFGQGTRLEIK
notes: GC1008 IgG4 variant
kd var/kd wt (human TGFβ3): 1
kd var/kd wt (human TGFβ2): 1.1
kd var/kd wt (human TGFβ1): 1.2

B3: Y27K (antibody, V domains shown)
VH: B1 VH with Y27K, C30S
VL: B1 VL
notes: GC1008 IgG4 variant
kd var/kd wt (human TGFβ3): 1.3
kd var/kd wt (human TGFβ2): 1.4
kd var/kd wt (human TGFβ1): 1.9

B4: S30G (antibody, V domains shown)
VH: B1 VH with C30G
VL: B1 VL
notes: GC1008 IgG4 variant
kd var/kd wt (human TGFβ3): 0.9
kd var/kd wt (human TGFβ2): 0.7
kd var/kd wt (human TGFβ1): 0.9

B6: Y27L (antibody, V domains shown)
VH: B1 VH with Y27L, C30S
VL: B1 VL
notes: GC1008 IgG4 variant
kd var/kd wt (human TGFβ3): 1.1
kd var/kd wt (human TGFβ2): 1.4
kd var/kd wt (human TGFβ1): 1.4

B8: Y27E (antibody, V domains shown)
VH: B1 VH with Y27E, C30S
VL: B1 VL
notes: GC1008 IgG4 variant
kd var/kd wt (human TGFβ3): 1.1
kd var/kd wt (human TGFβ2): 1.4
kd var/kd wt (human TGFβ1): 1.2

B14: S30L (antibody, V domains shown)
VH: B1 VH with C30L
VL: B1 VL
notes: GC1008 IgG4 variant
kd var/kd wt (human TGFβ3): 1
kd var/kd wt (human TGFβ2): 1
kd var/kd wt (human TGFβ1): 1

B17: S30F (antibody, V domains shown)
VH: B1 VH with C30F
VL: B1 VL
notes: GC1008 IgG4 variant
kd var/kd wt (human TGFβ3): 0.7
kd var/kd wt (human TGFβ2): 0.9
kd var/kd wt (human TGFβ1): 1

B18: Y27A (antibody, V domains shown)
VH: B1 VH with Y27A, C30S
VL: B1 VL
notes: GC1008 IgG4 variant
kd var/kd wt (human TGFβ3): 1.5
kd var/kd wt (human TGFβ2): 1.4
kd var/kd wt (human TGFβ1): 1.6

B19: Y27G (antibody, V domains shown)
VH: B1 VH with Y27G, C30S
VL: B1 VL
notes: GC1008 IgG4 variant
kd var/kd wt (human TGFβ3): 1.3
kd var/kd wt (human TGFβ2): 1.4
kd var/kd wt (human TGFβ1): 1.5

B21: Y27F (antibody, V domains shown)
VH: B1 VH with Y27F, C30S
VL: B1 VL
notes: GC1008 IgG4 variant
kd var/kd wt (human TGFβ3): 1.1
kd var/kd wt (human TGFβ2): 1.2
kd var/kd wt (human TGFβ1): 1.3

B24: S30I (antibody, V domains shown)
VH: B1 VH with C30I
VL: B1 VL
notes: GC1008 IgG4 variant
kd var/kd wt (human TGFβ3): 1.1
kd var/kd wt (human TGFβ2): 1.1
kd var/kd wt (human TGFβ1): 1.4

B25: S30D (antibody, V domains shown)
VH: B1 VH with C30D
VL: B1 VL
notes: GC1008 IgG4 variant
kd var/kd wt (human TGFβ3): 1.1
kd var/kd wt (human TGFβ2): 1.2
kd var/kd wt (human TGFβ1): 1.4

B31: Y27I (antibody, V domains shown)
VH: B1 VH with Y27I, C30S
VL: B1 VL
notes: GC1008 IgG4 variant
kd var/kd wt (human TGFβ3): 1.1
kd var/kd wt (human TGFβ2): 1.3
kd var/kd wt (human TGFβ1): 1.3

B33: Y27D (antibody, V domains shown)
VH: B1 VH with Y27D, C30S
VL: B1 VL
notes: GC1008 IgG4 variant
kd var/kd wt (human TGFβ3): 1.2
kd var/kd wt (human TGFβ2): 1.3
kd var/kd wt (human TGFβ1): 1.2

Other lines, results leading:

kd var/kd wt (human TGFβ3): 1.2
kd var/kd wt (human TGFβ2): 1.3
kd var/kd wt (human TGFβ1): 1.3
B2: S30N (antibody, V domains shown)
VH: B1 VH with C30N
VL: B1 VL
notes: GC1008 IgG4 variant

kd var/kd wt (human TGFβ3): 1.2
kd var/kd wt (human TGFβ2): 1.2
kd var/kd wt (human TGFβ1): 1.5
B5: S31P (antibody, V domains shown)
VH: B1 VH with C30S, S31P
VL: B1 VL
notes: GC1008 IgG4 variant

kd var/kd wt (human TGFβ3): 1.1
kd var/kd wt (human TGFβ2): 1.2
kd var/kd wt (human TGFβ1): 1.2
B7: S31A (antibody, V domains shown)
VH: B1 VH with C30S, S31A
VL: B1 VL
notes: GC1008 IgG4 variant

kd var/kd wt (human TGFβ3): 1.4
kd var/kd wt (human TGFβ2): 1.2
kd var/kd wt (human TGFβ1): 1.8
B9: S31K (antibody, V domains shown)
VH: B1 VH with C30S, S31K
VL: B1 VL
notes: GC1008 IgG4 variant

kd var/kd wt (human TGFβ3): 1
kd var/kd wt (human TGFβ2): 0.9
kd var/kd wt (human TGFβ1): 0.7
B10: S30M (antibody, V domains shown)
VH: B1 VH with C30M
VL: B1 VL
notes: GC1008 IgG4 variant

kd var/kd wt (human TGFβ3): 1.1
kd var/kd wt (human TGFβ2): 1.2
kd var/kd wt (human TGFβ1): 1.1
B11: S31G (antibody, V domains shown)
VH: B1 VH with C30S, S31G
VL: B1 VL
notes: GC1008 IgG4 variant

kd var/kd wt (human TGFβ3): 1.1
kd var/kd wt (human TGFβ2): 1.2
kd var/kd wt (human TGFβ1): 1.2
B12: S30T (antibody, V domains shown)
VH: B1 VH with C30T
VL: B1 VL
notes: GC1008 IgG4 variant

kd var/kd wt (human TGFβ3): 0.9
kd var/kd wt (human TGFβ2): 1
kd var/kd wt (human TGFβ1): 1.2
B13: S30P (antibody, V domains shown)
VH: B1 VH with C30P
VL: B1 VL
notes: GC1008 IgG4 variant

kd var/kd wt (human TGFβ3): 1
kd var/kd wt (human TGFβ2): 1
kd var/kd wt (human TGFβ1): 1.5
B15: S31Q (antibody, V domains shown)
VH: B1 VH with C30S, S31Q
VL: B1 VL
notes: GC1008 IgG4 variant

kd var/kd wt (human TGFβ3): 1.3
kd var/kd wt (human TGFβ2): 1.2
kd var/kd wt (human TGFβ1): 1.9
B16: S30R (antibody, V domains shown)
VH: B1 VH with C30R
VL: B1 VL
notes: GC1008 IgG4 variant

kd var/kd wt (human TGFβ3): 1.4
kd var/kd wt (human TGFβ2): 1.3
kd var/kd wt (human TGFβ1): 1.5
B20: S31H (antibody, V domains shown)
VH: B1 VH with C30S, S31H
VL: B1 VL
notes: GC1008 IgG4 variant

kd var/kd wt (human TGFβ3): 1.1
kd var/kd wt (human TGFβ2): 1.2
kd var/kd wt (human TGFβ1): 1.1
B22: S30V (antibody, V domains shown)
VH: B1 VH with C30V
VL: B1 VL
notes: GC1008 IgG4 variant

kd var/kd wt (human TGFβ3): 1.9
kd var/kd wt (human TGFβ2): 1.9
kd var/kd wt (human TGFβ1): 1.8
B23: V55G (antibody, V domains shown)
VH: B1 VH with C30S, V55G
VL: B1 VL
notes: GC1008 IgG4 variant

kd var/kd wt (human TGFβ3): 1.4
kd var/kd wt (human TGFβ2): 1.4
kd var/kd wt (human TGFβ1): 1.7
B26: S31E (antibody, V domains shown)
VH: B1 VH with C30S, S31E
VL: B1 VL
notes: GC1008 IgG4 variant

kd var/kd wt (human TGFβ3): 1.5
kd var/kd wt (human TGFβ2): 1.2
kd var/kd wt (human TGFβ1): 2
B27: S31L (antibody, V domains shown)
VH: B1 VH with C30S, S31L
VL: B1 VL
notes: GC1008 IgG4 variant

kd var/kd wt (human TGFβ3): 1.5
kd var/kd wt (human TGFβ2): 1.2
kd var/kd wt (human TGFβ1): 1.4
B28: S31R (antibody, V domains shown)
VH: B1 VH with C30S, S31R
VL: B1 VL
notes: GC1008 IgG4 variant

kd var/kd wt (human TGFβ3): 1.5
kd var/kd wt (human TGFβ2): 1.2
kd var/kd wt (human TGFβ1): 1.6
B29: S31T (antibody, V domains shown)
VH: B1 VH with C30S, S31T
VL: B1 VL
notes: GC1008 IgG4 variant

kd var/kd wt (human TGFβ3): 1.4
kd var/kd wt (human TGFβ2): 1
kd var/kd wt (human TGFβ1): 1.4
B30: S31V (antibody, V domains shown)
VH: B1 VH with C30S, S31V
VL: B1 VL
notes: GC1008 IgG4 variant

kd var/kd wt (human TGFβ3): 0.8
kd var/kd wt (human TGFβ2): 0.9
kd var/kd wt (human TGFβ1): 1
B32: S30Y (antibody, V domains shown)
VH: B1 VH with C30Y
VL: B1 VL
notes: GC1008 IgG4 variant

kd var/kd wt (human TGFβ3): 1.1
kd var/kd wt (human TGFβ2): 1.2
kd var/kd wt (human TGFβ1): 1.2
B34: S30Q (antibody, V domains shown)
VH: B1 VH with C30Q
VL: B1 VL
notes: GC1008 IgG4 variant
